We go through 1 substance from publication doi:10.1101/2023.05.14.540690.

This experiment has as its target stressed NISTmAb monoclonal antibody. Kind of experiment: AUC; sedimentation velocity at 50,000 rpm and 20 °C; c(s) analysis in SEDFIT (command line operated, and repeated manually on the same data); stressed, partially denatured sample.

What is called stoichiometry N is the number of molecules, sites or subunits per partner or assembly. As for stressed NISTmAb monoclonal antibody, the percent of signal in higher aggregates (command line analysis) was 51.8%, the percent of signal in higher aggregates (manual analysis of the same data) is 51.7%, the percent of signal in the dimer peak was determined as 12.5% and the stoichiometry N stood at 2.
